Assay results taken from patent US20190352359A1 (IMMATICS BIOTECHNOLOGIES, published 2019).

Biological target: T1, HLA-A*24
T1 construct: Monomers captured on streptavidin plates; also called peptide-receptive MHC molecules; MHC complexes
Experiment: UV peptide-exchange ELISA (anti-b2m); yield grade ++ = >20%
From the text: Candidate peptides for T cell based therapies according to the present invention were further tested for their MHC binding capacity (affinity). The individual peptide-MHC complexes were produced by UV-ligand exchange, where a UV-sensitive peptide is cleaved upon UV-irradiation, and exchanged with the peptide of interest as analyzed. Only peptide candidates that can effectively bind and stabilize the peptide-receptive MHC molecules prevent dissociation of the MHC complexes. To determine the yield of the exchange reaction, an ELISA was performed based on the detection of the light chain (p2m) of stabilized MHC complexes. The assay was performed as generally described in Rodenko et al. (Rodenko et al., 2006)
96 well MAXISorp plates (NUNC) were coated over night with 2 ug/ml streptavidin in PBS at room temperature, washed 4× and blocked for 1 h at 37° C. in 2% BSA containing blocking buffer. Refolded HLA-A*02:01/MLA-001 monomers served as standards, covering the range of 15-500 ng/ml. Peptide-MHC monomers of the UV-exchange reaction were diluted 100-fold in blocking buffer. Samples were incubated for 1 h at 37° C., washed four times, incubated with 2 ug/ml HRP conjugated anti-β2m for 1h at 37° C., washed again and detected with TMB solution that is stopped with […]. Absorption was measured at 450 nm. Candidate peptides that show a high exchange yield (preferably higher than 50%, most preferred higher than 75%) are generally preferred for a generation and production of antibodies or fragments thereof, and/or T cell receptors or fragments thereof, as they show sufficient avidity to the MHC molecules and prevent dissociation of the MHC complexes.

Which peptide exchange yield does the source give for WQNVTPLTF (also called WQNVTPLTF) [MMP16-002] here?
The peptide exchange yield was 20 to 50%.

EVVHTVFLF (also called EVVHTVFLF) [HMCN1-007] was tested. Which peptide exchange yield did it give?
Its peptide exchange yield is 20 to 50%.

How did the peptide exchange yield turn out when MLYFAPDLIL (also called MLYFAPDLIL) [PGR-004] was run?
The peptide exchange yield was 20 to 50%.

How did the peptide exchange yield turn out when KMLPEASLLI (also called KMLPEASLLI) [NLRP4-004] was run?
The peptide exchange yield was 20 to 50%.

KASKITFHW (also called KASKITFHW) [PTP-038] was tested. Which peptide exchange yield did it give?
The peptide exchange yield was 20 to 50%.

How did the peptide exchange yield turn out when RHYHSIEVF (also called RHYHSIEVF) [LOXL4-004] was run?
The peptide exchange yield was 20 to 50%.

Which peptide exchange yield does the source give for YLPNPSLNAF (also called YLPNPSLNAF) [CYP1A1-003] here?
The peptide exchange yield was 20 to 50%.

Which peptide exchange yield does the source give for VYLRIGGF (also called VYLRIGGF) [WNT7A-002] here?
Its peptide exchange yield is 20 to 50%.

With CAMPVAMEF (also called CAMPVAMEF) [KBTBD8-003] as the binder, how does the peptide exchange yield read?
The peptide exchange yield was 20 to 50%.

Which peptide exchange yield does the source give for KYSVAFYSLD (also called KYSVAFYSLD) [LAMA1-008] here?
The peptide exchange yield was 20 to 50%.

With YTCSRAVSLF (also called YTCSRAVSLF) [OTOG-001] as the binder, how does the peptide exchange yield read?
Its peptide exchange yield is 20 to 50%.

How did the peptide exchange yield turn out when ALFPMGPLTF (also called ALFPMGPLTF) [LILRA4-003] was run?
The peptide exchange yield was 20 to 50%.

For VHSYLGSPF (also called VHSYLGSPF) [MPL-001], which peptide exchange yield is on record?
Its peptide exchange yield is 20 to 50%.

Which peptide exchange yield does the source give for HQYGGAYNRV (also called HQYGGAYNRV) [DLX5-002] here?
The peptide exchange yield was 20 to 50%.

With FFLFIPFF (also called FFLFIPFF) [ADAM2-001] as the binder, how does the peptide exchange yield read?
The peptide exchange yield was 20 to 50%.

For AYAIPSASLSW (also called AYAIPSASLSW) [HMCN1-005], which peptide exchange yield is on record?
The peptide exchange yield was 20 to 50%.

LYQQSDTWSL (also called LYQQSDTWSL) [KIAA140-001] was tested. Which peptide exchange yield did it give?
Its peptide exchange yield is 20 to 50%.

How did the peptide exchange yield turn out when TQIITFESF (also called TQIITFESF) [CSF2-001] was run?
Its peptide exchange yield is 20 to 50%.

How did the peptide exchange yield turn out when FSFSTSMNEF (also called FSFSTSMNEF) [CAPN6-001] was run?
Its peptide exchange yield is 20 to 50%.

Which peptide exchange yield does the source give for INGDLVFSF (also called INGDLVFSF) [CAPN6-002] here?
Its peptide exchange yield is 20 to 50%.

Which peptide exchange yield does the source give for VTMYLPLLL (also called VTMYLPLLL) [GPR143-001] here?
Its peptide exchange yield is 20 to 50%.

Which peptide exchange yield does the source give for TYESVVTGFF (also called TYESVVTGFF) [HAS3-004] here?
The peptide exchange yield was 20 to 50%.

With TIYSLEMKMSF (also called TIYSLEMKMSF) [GLB1L3-001] as the binder, how does the peptide exchange yield read?
Its peptide exchange yield is 20 to 50%.

For ASYQQSTSSFF (also called ASYQQSTSSFF) [FAM82A1-001], which peptide exchange yield is on record?
Its peptide exchange yield is 20 to 50%.

RQAYSVYAF (also called RQAYSVYAF) [SLC45A3-005] was tested. Which peptide exchange yield did it give?
The peptide exchange yield was 20 to 50%.

For MGKGSISFLF (also called MGKGSISFLF) [PCSK1-001], which peptide exchange yield is on record?
The peptide exchange yield was 20 to 50%.

For RTLNEIYHW (also called RTLNEIYHW) [FOXP3-001], which peptide exchange yield is on record?
The peptide exchange yield was 20 to 50%.

For YTRLVLQF (also called YTRLVLQF) [GABRP-008], which peptide exchange yield is on record?
Its peptide exchange yield is 20 to 50%.

With KMFPKDFRF (also called KMFPKDFRF) [TTLL6-001] as the binder, how does the peptide exchange yield read?
Its peptide exchange yield is 20 to 50%.

Which peptide exchange yield does the source give for YQRPDLLLF (also called YQRPDLLLF) [GEN-004] here?
Its peptide exchange yield is 20 to 50%.

Which peptide exchange yield does the source give for LKSPRLFTF (also called LKSPRLFTF) [BTBD16-001] here?
The peptide exchange yield was 20 to 50%.

How did the peptide exchange yield turn out when LFALPDFIF (also called LFALPDFIF) [CXCR3-002] was run?
Its peptide exchange yield is 20 to 50%.

YQGSLEVLF (also called YQGSLEVLF) [MROH2A-006] was tested. Which peptide exchange yield did it give?
The peptide exchange yield was 20 to 50%.

How did the peptide exchange yield turn out when EFINGWYVL (also called EFINGWYVL) [MCOLN2-002] was run?
The peptide exchange yield was 20 to 50%.

How did the peptide exchange yield turn out when YLCMLYALF (also called YLCMLYALF) [KCNK18-001] was run?
Its peptide exchange yield is 20 to 50%.

SQHFNLATF (also called SQHFNLATF) [DNMT3B-003] was tested. Which peptide exchange yield did it give?
Its peptide exchange yield is 20 to 50%.

With YLGKNWSF (also called YLGKNWSF) [SPNS3-006] as the binder, how does the peptide exchange yield read?
The peptide exchange yield was 20 to 50%.

How did the peptide exchange yield turn out when KVFGSFLTL (also called KVFGSFLTL) [AGTR2-001] was run?
Its peptide exchange yield is 20 to 50%.

How did the peptide exchange yield turn out when FSSTLVSLF (also called FSSTLVSLF) [MAGEC1-003] was run?
Its peptide exchange yield is 20 to 50%.

With YAYATVLTF (also called YAYATVLTF) [ABCC4-002] as the binder, how does the peptide exchange yield read?
The peptide exchange yield was 20 to 50%.

With RSWENIPVTF (also called RSWENIPVTF) [C18orf54-001] as the binder, how does the peptide exchange yield read?
The peptide exchange yield was 20 to 50%.

Which peptide exchange yield does the source give for AAFPGAFSF (also called AAFPGAFSF) [CRB2-002] here?
The peptide exchange yield was 20 to 50%.

YSLEHLTQF (also called YSLEHLTQF) [ZCCHC16-001] was tested. Which peptide exchange yield did it give?
Its peptide exchange yield is 20 to 50%.

For RALLPSPLF (also called RALLPSPLF) [SPATA31D1-001], which peptide exchange yield is on record?
Its peptide exchange yield is 20 to 50%.

How did the peptide exchange yield turn out when TQLPAPLRI (also called TQLPAPLRI) [GPR45-001] was run?
The peptide exchange yield was 20 to 50%.

KQPANFIVL (also called KQPANFIVL) [LOC1001246-001] was tested. Which peptide exchange yield did it give?
The peptide exchange yield was 20 to 50%.

How did the peptide exchange yield turn out when TQMDVKLVF (also called TQMDVKLVF) [GEN-003] was run?
The peptide exchange yield was 20 to 50%.

Which peptide exchange yield does the source give for FRSWAVQTF (also called FRSWAVQTF) [NOS2-002] here?
The peptide exchange yield was 20 to 50%.

How did the peptide exchange yield turn out when IWDALERTF (also called IWDALERTF) [ABCC11-005] was run?
Its peptide exchange yield is 20 to 50%.

For THAGVRLYF (also called THAGVRLYF) [NUP155-012], which peptide exchange yield is on record?
The peptide exchange yield was 20 to 50%.

Which peptide exchange yield does the source give for KTYLPTFETTI (also called KTYLPTFETTI) [ENP-002] here?
Its peptide exchange yield is 20 to 50%.

Which peptide exchange yield does the source give for YGQSKPWTF (also called YGQSKPWTF) [PAX3-001] here?
The peptide exchange yield was 20 to 50%.

Which peptide exchange yield does the source give for AVLRHLETF (also called AVLRHLETF) [CDK6-006] here?
Its peptide exchange yield is 20 to 50%.

QFSHVPLNNF (also called QFSHVPLNNF) [ALX1-001] was tested. Which peptide exchange yield did it give?
Its peptide exchange yield is 20 to 50%.
